Data taken from patent US20260035433A1.

Target: His-Tagged rhFc(gamma) receptor I (recombinant human Fc(gamma)R-I; Acro Biosystems, catalog# FCA-H52H1) (human)
Assay: ELISA, control IgG coated, His-tagged rhFc(gamma)RI in solution, anti-His-HRP

Chain of His-Tagged rhFc(gamma) receptor I (recombinant human Fc(gamma)R-I; Acro Biosystems, catalog# FCA-H52H1) (human) (P12314 16-292): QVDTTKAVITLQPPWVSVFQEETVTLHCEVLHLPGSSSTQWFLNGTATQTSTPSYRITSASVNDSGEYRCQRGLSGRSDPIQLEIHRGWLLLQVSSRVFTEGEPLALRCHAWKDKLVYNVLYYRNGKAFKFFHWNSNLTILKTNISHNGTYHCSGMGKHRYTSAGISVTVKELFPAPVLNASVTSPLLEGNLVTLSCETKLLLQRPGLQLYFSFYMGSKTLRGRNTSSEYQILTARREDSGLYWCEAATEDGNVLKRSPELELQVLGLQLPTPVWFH

OD450 at 222 ng/ml Fc(gamma) RI: 0.686 OD450
Substance: Dog IgG, Control Rockland-Inc, Cat# 004-0102-005 (antibody)
